The source of these data is patent US20240067745A1 (ABMAX BIOTECHNOLOGY, published 2024).

The target of one assay is T1, complement protein C5 (human, UniProt P01031 19-1676, limits assumed).
T1 construct: Purchased antigen coated on the ELISA plate; Natural C5 is processed into beta and alpha chains from one precursor; also called human C5
As to the kind of experiment: indirect ELISA, C5 coated at 0.3 µg/ml. The procedure: The experimental method is as follows: Dilute the antigen with C5 (purchased from Nearshore Technology Co., Ltd.) to 0.3 μg/ml with PBS; add 100 μl/well of the diluted antigen to a 96-well plate, cover, overnight at 4° C.; shake off The liquid in the well was washed three times with PBS, 200 μl/well, and patted dry; blocked with 5% milk-PBS 200 μl/well for 1 hour, and tapped every 15 minutes; the liquid in the well was shaken off, washed once with PBS, 200 μl/well, and patted dry; Add purified antibody (0-10 μg/ml) in a gradient, see Table 4 for antibody name, 5% milk-PBS dilution, 100 μl/well, incubate for 1 h, tap every 15 min; shake off the liquid in the well, wash three times with PBS, 200 μl/well, pat dry; add secondary antibody, diluted in 5% milk-PBS, 100 μl/well, incubate for 1 h, tap every 15 min; preheat TMB substrate at room temperature, and turn on the microplate reader to preheat; wash 5 times with PBS, 250μl/well, the first three times 5 min, the last two times 10 min, pat dry; add 50 μl/well of TMB substrate AB each, and develop color at room temperature for 20 min; use a scanner to scan and record the picture, add 50 μl/well of stop solution, use enzyme labeling The meter reads OD450.

The target of another assay is T2, IL-1α (UniProt P01583 113-271).
T2 construct: Purchased coating factor
T2 sequence (looked up): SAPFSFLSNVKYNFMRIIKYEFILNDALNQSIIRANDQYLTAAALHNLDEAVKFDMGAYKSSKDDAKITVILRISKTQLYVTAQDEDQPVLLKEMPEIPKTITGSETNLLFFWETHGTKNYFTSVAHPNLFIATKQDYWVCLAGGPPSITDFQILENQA
As to the kind of experiment: indirect ELISA, factor coated at 1 µg/ml. The procedure:
(§1) The specific experimental process is as follows: C5, C3, C3b, rIFN γ (recombinant human interferon γ), IL-1α, IL-1β, IL-2, IL-4 and IL-8 (purchased from Inshore Technology, respectively) were mixed with PBS. Co., Ltd.), dilute the antigen to 1 μg/ml; add 100 μl/well of the diluted antigen to a 96-well plate, cover, overnight at 4° C.; shake off the liquid in the well, wash three times with PBS, 200 μl/well, manually Pat dry; block with 200 μl/well of 5% milk, block for 1 h, tap the edge of the ELISA plate every 15 minutes to promote the reaction; shake off the liquid in the well, wash once with PBS, 200 μl/well, pat dry by hand; add different light chains Heavy chain combination antibody, diluted in 5% milk, 100 μl/well, incubated for 1 h, tap the edge of the ELISA plate every 15 min to promote the reaction; shake off the liquid in the well, wash three times with PBS, 200 μl/well, pat dry by hand; add Goat anti-human secondary antibody, diluted in 5% milk, 100 μl/well; incubate for 1 h, tap the edge of the ELISA plate every 15 min to promote the reaction; preheat the TMB substrate at room temperature, and turn on the microplate reader to preheat; wash 5 times with PBS, 250 μl/well, the first three times 5 min, the last two times 10 min, pat dry by hand; add 50 μl/well of TMB substrate AB to each well, and develop color at room temperature for 20 min; use a scanner to scan and record the pictures, add 50 μl/well of stop solution, use enzyme The standard instrument reads OD450 and archives.

Another assay addresses T3, IL-2 (UniProt P60568 21-153).
T3 construct: Purchased coating factor
As to the kind of experiment: indirect ELISA, factor coated at 1 µg/ml. How it is done:
as §1

The target of another assay is T4, IL-8 (UniProt P10145 28-99, limits assumed).
T4 construct: Purchased coating factor
T4 sequence (looked up): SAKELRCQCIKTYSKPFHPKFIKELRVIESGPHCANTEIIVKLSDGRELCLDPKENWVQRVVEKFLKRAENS
Description: indirect ELISA, factor coated at 1 µg/ml. How it is done:
as §1

Assay [1] has as its target T5, rIFN γ (recombinant human interferon γ) (human, UniProt P01579 24-166, limits assumed).
T5 construct: Purchased coating factor
T5 sequence (looked up): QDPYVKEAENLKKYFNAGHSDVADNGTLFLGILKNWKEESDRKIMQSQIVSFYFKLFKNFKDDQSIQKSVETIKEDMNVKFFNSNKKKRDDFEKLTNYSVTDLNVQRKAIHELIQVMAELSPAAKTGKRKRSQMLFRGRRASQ
As to the kind of experiment: indirect ELISA, factor coated at 1 µg/ml. The procedure: as §1

In the next assay the target is T6, C3 (UniProt P01024 23-1663, limits assumed).
T6 construct: Purchased coating factor
T6 sequence (P01024 23-1663 limits assumed): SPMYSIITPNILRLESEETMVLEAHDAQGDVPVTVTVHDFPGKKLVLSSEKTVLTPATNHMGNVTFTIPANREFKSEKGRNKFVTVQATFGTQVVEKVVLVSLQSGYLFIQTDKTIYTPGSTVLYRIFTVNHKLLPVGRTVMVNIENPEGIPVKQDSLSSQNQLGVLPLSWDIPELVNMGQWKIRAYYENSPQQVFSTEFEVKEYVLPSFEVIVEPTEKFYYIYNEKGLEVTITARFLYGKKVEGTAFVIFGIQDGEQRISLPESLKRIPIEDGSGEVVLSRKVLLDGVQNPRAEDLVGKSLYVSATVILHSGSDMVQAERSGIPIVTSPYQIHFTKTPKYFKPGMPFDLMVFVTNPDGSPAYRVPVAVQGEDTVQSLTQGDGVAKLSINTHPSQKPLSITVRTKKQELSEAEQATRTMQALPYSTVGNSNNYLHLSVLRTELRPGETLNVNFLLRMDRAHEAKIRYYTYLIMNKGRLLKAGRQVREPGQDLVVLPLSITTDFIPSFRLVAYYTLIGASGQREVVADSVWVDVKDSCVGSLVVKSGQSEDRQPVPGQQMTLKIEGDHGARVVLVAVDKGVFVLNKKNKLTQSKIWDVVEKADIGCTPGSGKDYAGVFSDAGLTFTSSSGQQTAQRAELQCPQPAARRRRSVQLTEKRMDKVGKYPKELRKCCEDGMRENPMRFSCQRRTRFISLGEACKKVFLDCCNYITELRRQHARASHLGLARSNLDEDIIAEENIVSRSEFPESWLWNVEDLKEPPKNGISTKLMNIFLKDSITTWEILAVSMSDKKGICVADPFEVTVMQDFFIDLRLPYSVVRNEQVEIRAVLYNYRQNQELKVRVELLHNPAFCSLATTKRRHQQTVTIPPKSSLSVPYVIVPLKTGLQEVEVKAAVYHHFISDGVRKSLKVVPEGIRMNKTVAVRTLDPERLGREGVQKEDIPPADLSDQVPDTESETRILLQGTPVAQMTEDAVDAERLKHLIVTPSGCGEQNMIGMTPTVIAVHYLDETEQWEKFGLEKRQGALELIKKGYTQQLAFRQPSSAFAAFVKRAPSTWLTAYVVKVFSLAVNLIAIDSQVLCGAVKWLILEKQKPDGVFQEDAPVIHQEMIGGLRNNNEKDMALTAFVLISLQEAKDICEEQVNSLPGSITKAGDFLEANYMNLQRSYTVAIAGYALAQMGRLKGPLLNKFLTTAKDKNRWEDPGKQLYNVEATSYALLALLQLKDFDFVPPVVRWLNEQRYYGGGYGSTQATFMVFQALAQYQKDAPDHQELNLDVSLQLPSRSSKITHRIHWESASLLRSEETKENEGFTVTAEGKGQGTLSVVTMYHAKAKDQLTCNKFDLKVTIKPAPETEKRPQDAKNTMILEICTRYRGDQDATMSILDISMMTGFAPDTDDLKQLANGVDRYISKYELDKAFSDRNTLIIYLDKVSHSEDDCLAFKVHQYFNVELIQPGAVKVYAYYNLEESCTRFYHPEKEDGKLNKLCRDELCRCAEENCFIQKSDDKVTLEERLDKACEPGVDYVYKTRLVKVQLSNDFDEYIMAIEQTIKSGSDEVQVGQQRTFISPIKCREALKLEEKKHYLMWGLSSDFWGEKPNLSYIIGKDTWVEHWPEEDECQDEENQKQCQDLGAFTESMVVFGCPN
As to the kind of experiment: indirect ELISA, factor coated at 1 µg/ml. How it is done:
as §1

In another assay the target is T7, IL-4 (UniProt P05112 25-153).
T7 construct: Purchased coating factor
T7 sequence (looked up): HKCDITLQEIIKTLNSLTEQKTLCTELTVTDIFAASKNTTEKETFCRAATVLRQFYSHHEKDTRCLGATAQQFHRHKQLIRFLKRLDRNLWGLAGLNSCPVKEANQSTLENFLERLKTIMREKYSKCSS
As to the kind of experiment: indirect ELISA, factor coated at 1 µg/ml. The procedure: as §1

The next assay concerns the target T8, IL-1β (UniProt P01584 117-269).
T8 construct: Purchased coating factor
Description: indirect ELISA, factor coated at 1 µg/ml. The procedure: as §1

Changes are numbered by the printed parent chain. Where “and” joins values, the source holds several entries; their conditions need not be identical. Equal entries are not always repeated.

T3 sequence (P60568 21-153 limits assumed): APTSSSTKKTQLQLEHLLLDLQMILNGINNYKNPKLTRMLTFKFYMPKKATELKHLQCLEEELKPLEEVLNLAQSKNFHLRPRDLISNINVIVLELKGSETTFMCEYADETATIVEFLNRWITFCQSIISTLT
T1 sequence (P01031 19-1676 limits assumed): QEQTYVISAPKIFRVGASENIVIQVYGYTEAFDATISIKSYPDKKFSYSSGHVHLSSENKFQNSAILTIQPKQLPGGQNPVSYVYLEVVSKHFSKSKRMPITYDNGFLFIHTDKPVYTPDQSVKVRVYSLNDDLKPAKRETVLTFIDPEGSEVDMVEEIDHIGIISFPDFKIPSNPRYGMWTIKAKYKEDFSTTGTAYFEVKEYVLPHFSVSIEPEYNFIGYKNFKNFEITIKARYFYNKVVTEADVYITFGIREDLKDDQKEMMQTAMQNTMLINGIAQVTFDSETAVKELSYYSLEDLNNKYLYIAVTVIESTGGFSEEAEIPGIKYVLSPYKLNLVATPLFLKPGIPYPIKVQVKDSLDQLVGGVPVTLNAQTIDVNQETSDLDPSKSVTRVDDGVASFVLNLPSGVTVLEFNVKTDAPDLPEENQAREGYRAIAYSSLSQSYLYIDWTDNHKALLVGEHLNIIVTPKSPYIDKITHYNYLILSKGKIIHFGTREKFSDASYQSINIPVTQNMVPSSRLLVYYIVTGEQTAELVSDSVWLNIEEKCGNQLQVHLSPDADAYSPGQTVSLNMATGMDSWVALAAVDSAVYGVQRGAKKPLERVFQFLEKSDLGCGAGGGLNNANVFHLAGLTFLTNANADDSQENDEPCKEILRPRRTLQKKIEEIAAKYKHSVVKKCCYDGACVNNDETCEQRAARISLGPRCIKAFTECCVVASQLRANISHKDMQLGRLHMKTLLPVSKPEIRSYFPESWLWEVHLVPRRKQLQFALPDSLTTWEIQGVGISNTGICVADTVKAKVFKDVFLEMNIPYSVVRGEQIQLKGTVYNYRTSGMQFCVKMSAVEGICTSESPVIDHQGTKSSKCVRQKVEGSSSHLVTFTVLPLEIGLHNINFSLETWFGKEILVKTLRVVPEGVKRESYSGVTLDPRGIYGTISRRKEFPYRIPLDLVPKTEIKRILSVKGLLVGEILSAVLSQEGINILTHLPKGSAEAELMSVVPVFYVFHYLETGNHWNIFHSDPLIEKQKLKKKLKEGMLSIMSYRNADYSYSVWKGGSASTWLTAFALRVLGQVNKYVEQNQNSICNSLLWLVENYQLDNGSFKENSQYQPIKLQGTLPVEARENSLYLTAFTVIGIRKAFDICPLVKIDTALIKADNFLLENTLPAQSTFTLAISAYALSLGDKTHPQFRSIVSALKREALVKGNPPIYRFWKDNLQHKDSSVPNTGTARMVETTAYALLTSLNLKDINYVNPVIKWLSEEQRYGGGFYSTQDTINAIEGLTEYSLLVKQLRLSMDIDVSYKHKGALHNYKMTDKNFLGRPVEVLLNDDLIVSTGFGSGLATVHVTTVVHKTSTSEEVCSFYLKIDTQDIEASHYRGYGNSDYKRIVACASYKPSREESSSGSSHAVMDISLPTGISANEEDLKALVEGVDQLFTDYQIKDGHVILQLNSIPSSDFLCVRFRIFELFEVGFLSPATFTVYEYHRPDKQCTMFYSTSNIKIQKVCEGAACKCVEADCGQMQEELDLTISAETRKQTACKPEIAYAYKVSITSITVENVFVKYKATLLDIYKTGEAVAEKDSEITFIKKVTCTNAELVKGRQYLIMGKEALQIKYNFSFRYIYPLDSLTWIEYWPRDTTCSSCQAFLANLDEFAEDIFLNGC

B1: Improved Eculizumab monoclonal antibody H1L0 (antibody, human IgG1, kappa, V domains shown)
VH: QVQLVQSGGGVVQPGASVKVSCKASGYIFSNYWIQWVRQAPGQGLEWMGEILPGSGSTEYTENFKDRVTMTRDTSTSTVYMELSSLRSEDTAVYYCARYFFGSSPNWYFDVWGQGTLVTVSS
VL: DIQMTQSPSSLSASVGDRVTITCGASENIYGALNWYQQKPGKAPKLLIYGATNLADGVPSRFSGSGSGTDFTLTISSLQPEDFATYYCQNVLNTPLTFGQGTKVEIKR
notes: also called Improved H1L0; H1L0 (Improved)
For the molecule B1, in the assay with complement protein C5, the EC50 was 0.00382 µg/mL and 0.0255 nM. The binding result (with IL-1α; with IL-2; in the assay with IL-8; in assay [1]; with C3; with IL-4) was “no binding” each time. For the same molecule, the binding result with IL-1β is “no binding”.

B2: Improved Eculizumab monoclonal antibody H3L0 (antibody, human IgG1, kappa, V domains shown)
VH: B1 VH with M70L, R72T, T74S, S77T, V79A, S84K, R87Q, S88F, E89D
VL: B1 VL
notes: also called Improved H3L0; H3L0 (Improved)
On to B2, for which the binding result (in the assay with IL-1α; in the assay with IL-2; in the assay with IL-8; in assay [1]; in the assay with C3; with IL-4) was “no binding” throughout. Also, the binding result with IL-1β was “no binding”.
